One block for each binder: values may come before it.
Key:
[1] = target: T1, human LAP-TGFβ1 overexpressed on cells (human, UniProt P01137 30-390); assay: flow cytometry; black bar HT1080-huB1, grey bar HT1080
T1 construct: HT1080 or P3U1 cells overexpressing wild-type human LAP-TGFβ1; also called HT1080-huB1; HT1080-hβ1

[2] = target: T1, human LAP-TGFβ1 overexpressed on cells; assay: flow cytometry; black bar HT1080-huB1, grey bar HT1080-null
[3] = target: T2, fusion protein of a human IgG1 Fc domain and cynomolgus monkey LAP-TGFβ1 (human; cynomolgus monkey); assay: BLI, 2:1 model, component 1
T2 construct: also called cynomolgus monkey LAP-TGFβ-Fc
Protocol: (§1) The 20E6_H0.2aL1_IgG1 antibody was biotinylated using EZ-Link SulfoNHS-LC-Biotin (ThermoFisher). A streptavidin-functionalized tip was equilibrated in binding buffer (10 mM sodium phosphate, 150 mM sodium chloride, 1% (w/v) bovine serum albumin, 0.05% (w/v) sodium azide, pH 7.4) and dipped in a 10 μg/mL solution of biotinylated anti-LAP in binding buffer for 30 seconds to load the tip with antibody. The antibody-loaded tip was then washed in binding buffer and placed in a solution containing 0-24 nM of a fusion protein having a human IgG1 Fc domain fused to either human LAP-TGFβ1, human LAP-TGFβ2 or human LAP-TGFβ3. The antigen was allowed to bind to antibody for 5 minutes (association phase), and then the tip was moved to binding buffer (dissociation phase). The association and dissociation phases were fit to a 2:1 heterogenous ligand binding model to determine the binding rate constants. As shown in FIG. 21A and Table 17, 20E6_H0.2aL1_IgG1 bound with sub-nanomolar affinity to human LAP-TGFβ1, but not to human LAP-TGFβ2 (FIG. 21B) or LAP-TGFβ3 (FIG. 21C).
(§2) The binding of 20E6_H0.2aL1_IgG1 antibody and 20E6_H0.2aL1_hIgG4mut antibody to LAP-TGFβ1 of various species was examined by bio-layer interferometry using the method described in Example 12, except that the antibody-loaded tip was placed in a solution containing 0-24 nM of a fusion protein having a human IgG1 Fc domain fused to either mouse, rat, cynomolgus monkey, or human LAP-TGFβ1.

[4] = target: T3, fusion protein of a human IgG1 Fc domain and rat LAP-TGFβ1 (human; rat, UniProt P17246 30-390, limits assumed); assay: BLI, 2:1 model, component 1
T3 construct: also called rat LAP-TGFβ-Fc
T3 sequence (P17246 30-390 limits assumed): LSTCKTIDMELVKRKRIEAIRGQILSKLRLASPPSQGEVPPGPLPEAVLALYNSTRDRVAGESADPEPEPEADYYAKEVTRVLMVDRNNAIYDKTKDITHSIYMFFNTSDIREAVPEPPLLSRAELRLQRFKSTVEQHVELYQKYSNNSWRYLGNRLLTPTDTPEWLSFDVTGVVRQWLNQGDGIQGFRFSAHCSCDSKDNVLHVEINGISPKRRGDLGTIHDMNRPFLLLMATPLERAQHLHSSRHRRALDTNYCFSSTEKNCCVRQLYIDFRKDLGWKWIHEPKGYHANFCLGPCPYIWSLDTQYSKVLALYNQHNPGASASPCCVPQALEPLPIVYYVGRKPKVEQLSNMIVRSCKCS
Protocol: as §1, §2

[5] = target: T4, fusion protein of a human IgG1 Fc domain and human LAP-TGFβ1 (human, UniProt P01137 30-390); assay: BLI, 2:1 model, component 1
T4 construct: printed both as Fc-huB1 and LAP-TGFβ-Fc; also called Fc-huB1; Fc-human LAP
T4 sequence (P01137 30-390 limits assumed): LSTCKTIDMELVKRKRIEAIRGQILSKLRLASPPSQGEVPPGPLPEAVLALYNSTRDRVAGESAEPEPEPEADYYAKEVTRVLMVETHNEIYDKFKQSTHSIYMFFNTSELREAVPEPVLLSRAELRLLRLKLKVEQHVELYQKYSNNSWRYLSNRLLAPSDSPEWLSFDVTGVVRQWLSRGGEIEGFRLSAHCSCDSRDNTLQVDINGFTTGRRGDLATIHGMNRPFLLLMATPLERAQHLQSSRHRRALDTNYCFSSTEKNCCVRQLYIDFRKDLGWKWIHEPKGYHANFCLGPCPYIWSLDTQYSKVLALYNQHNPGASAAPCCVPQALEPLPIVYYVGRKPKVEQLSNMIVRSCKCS
Protocol: as §1, §2

[6] = target: T5, fusion protein of a human IgG1 Fc domain and mouse LAP-TGFβ1 (human; mouse, UniProt P04202 30-390); assay: BLI, 2:1 model, component 1
T5 construct: also called mouse LAP-TGFβ-Fc
T5 sequence (P04202 30-390 limits assumed): as the sequence (P17246 30-390 limits assumed) above, with D93E, T99S, F131L, T134S, V202K counted along it
Protocol: as §1, §2

[7] = target: T2, fusion protein of a human IgG1 Fc …; assay: BLI, 2:1 model, component 2
Protocol: as §1, §2

[8] = target: T3, fusion protein of a human IgG1 Fc …; assay: BLI, 2:1 model, component 2
Protocol: as §1, §2

[9] = target: T4, fusion protein of a human IgG1 Fc …; assay: BLI, 2:1 model, component 2
Protocol: as §1, §2

[10] = target: T5, fusion protein of a human IgG1 Fc …; assay: BLI, 2:1 model, component 2
Protocol: as §1, §2

[11] = target: T1, human LAP-TGFβ1 overexpressed on cells; assay: flow cytometry; black bar HT1080-huB1, grey bar HT1080; remark: listed apart in the source
Protocol: First, the ability of the humanized 20E6 candidates to bind to HT1080 cells overexpressing human TGFβ1 was tested by flow cytometry. HT1080 cells over-expressing human LAP-TGFβ1 were placed in a round-bottom 96-well plate at density of 40,000 cells/well. The cells were washed with FACS buffer (25 mM HEPES, 2 mM EDTA, 2% fetal bovine serum in Hank's Balanced Salt Solution). A volume (50 μL) of 1:200 diluted TruStain Human FcX (BioLegend) was added to each well, followed by 50 μL of 100 ng/μL of humanized 20E6 antibody construct. The antibody was allowed to bind for 20 minutes. The cells were washed twice with FACS buffer. The cells were labeled for 15 minutes with Alexa647-anti Human IgG (Jackson Immunoresearch), washed twice with FACS buffer, and analyzed by flow cytometry.

T1 sequence (P01137 30-390): as the sequence (P01137 30-390 limits assumed) above

binding result [1]: binds
B1: 22F9_D102A (antibody, human IgG1, kappa, V domains shown)
VH: QVQLVQPGAEVVKPGASVKLSCKASGYTFTSYWMHWVKQRPGQGLEWIGMIHPNSGSTNYNEKFKSKATLTVDKSSSTAYMELSSLRSEDTAVYYCAYYDYAGFFDVWGQGTLVTVSS
VL: DIQLTQSPSSLSASVGDRVTITCRASKSVSTSGYSYMHWYQQKPGKAPKLLIYLASNLESGVPSRFSGSGSGTDFTLTISSLQPEDFATYYCQHSRELPYTFGGGTKVEIKR
notes: also called 22F9_H5L0 with VH D102A

binding result [1]: binds
B2: 22F9_N54Q (antibody, human IgG1, kappa, V domains shown)
VH: QVQLVQPGAEVVKPGASVKLSCKASGYTFTSYWMHWVKQRPGQGLEWIGMIHPQSGSTNYNEKFKSKATLTVDKSSSTAYMELSSLRSEDTAVYYCAYYDYDGFFDVWGQGTLVTVSS
VL: DIQLTQSPSSLSASVGDRVTITCRASKSVSTSGYSYMHWYQQKPGKAPKLLIYLASNLESGVPSRFSGSGSGTDFTLTISSLQPEDFATYYCQHSRELPYTFGGGTKVEIKR
notes: also called 22F9_H5L0 with VH N54Q

binding result [1]: binds
B3: 22F9_H5.2L0 (antibody, human IgG1, kappa, V domains shown)
VH: QVQLVQPGAEVVKPGASVKLSCKASGYTFTSYWMHWVKQRPGQGLEWIGMIHPQSGSTNYNEKFKSKATLTVDKSSSTAYMELSSLRSEDTAVYYCAYYDYAGFFDVWGQGTLVTVSS
VL: DIQLTQSPSSLSASVGDRVTITCRASKSVSTSGYSYMHWYQQKPGKAPKLLIYLASNLESGVPSRFSGSGSGTDFTLTISSLQPEDFATYYCQHSRELPYTFGGGTKVEIKR
notes: also called 22F9_H5L0 with the double N54Q/D102A mutation

binding result [2]: binds
B4: 22F9_H3.1 variant (antibody, human IgG1, kappa, V domains shown)
VH: QVQLVQPGAEVVKPGASVKLSCKASGYTFTSYWMHWVRQAPGQGLEWIGMIHPQSGSTNYNEKFKSRVTLTVDKSSSTAYMELSSLRSEDTAVYYCAYYDYAGFFDVWGQGTLVTVSS
VL: DIQLTQSPSSLSASVGDRVTITCRASKSVSTSGYSYMHWYQQKPGKAPKLLIYLASNLESGVPSRFSGSGSGTDFTLTISSLQPEDFATYYCQHSRELPYTFGGGTKVEIKR

binding result [2]: binds
B5: 22F9_H1.1 variant (antibody, human IgG1, kappa, V domains shown)
VH: QVQLVQPGAEVVKPGASVKLSCKASGYTFTSYWMHWVKQRPGQGLEWIGMIHPQSGSTNYNEKFKSKATMTVDKSSSTVYMELSSLRSEDTAVYYCAYYDYAGFFDVWGQGTLVTVSS
VL: DIQLTQSPSSLSASVGDRVTITCRASKSVSTSGYSYMHWYQQKPGKAPKLLIYLASNLESGVPSRFSGSGSGTDFTLTISSLQPEDFATYYCQHSRELPYTFGGGTKVEIKR

binding result [2]: binds
B6: 22F9_H2.1 variant (antibody, human IgG1, kappa, V domains shown)
VH: QVQLVQPGAEVVKPGASVKLSCKASGYTFTSYWMHWVKQRPGQGLEWIGMIHPQSGSTNYNEKFKSKATLTVDKSTSTAYMELSSLRSEDTAVYYCAYYDYAGFFDVWGQGTLVTVSS
VL: DIQLTQSPSSLSASVGDRVTITCRASKSVSTSGYSYMHWYQQKPGKAPKLLIYLASNLESGVPSRFSGSGSGTDFTLTISSLQPEDFATYYCQHSRELPYTFGGGTKVEIKR

Kd [3]: 26.1 nM
koff [3]: 0.0524 s⁻¹
kon [3]: 2e+06 M⁻¹ s⁻¹
Kd [4]: 11.1 nM
koff [4]: 0.0406 s⁻¹
kon [4]: 3.6e+06 M⁻¹ s⁻¹
Kd [5]: 10.7 nM
koff [5]: 0.0303 s⁻¹
kon [5]: 2.8e+06 M⁻¹ s⁻¹
Kd [6]: 16.9 nM
koff [6]: 0.0478 s⁻¹
kon [6]: 2.8e+06 M⁻¹ s⁻¹
Kd [7]: 1.53 nM
koff [7]: 0.00143 s⁻¹
kon [7]: 940000 M⁻¹ s⁻¹
Kd [8]: 0.51 nM
koff [8]: 0.00087 s⁻¹
kon [8]: 1.7e+06 M⁻¹ s⁻¹
Kd [9]: 0.51 nM
koff [9]: 0.00036 s⁻¹
kon [9]: 700000 M⁻¹ s⁻¹
Kd [10]: 1.31 nM
koff [10]: 0.0011 s⁻¹
kon [10]: 840000 M⁻¹ s⁻¹
B7: 20E6_H0.2aL1_hIgG4mut (antibody)
heavy: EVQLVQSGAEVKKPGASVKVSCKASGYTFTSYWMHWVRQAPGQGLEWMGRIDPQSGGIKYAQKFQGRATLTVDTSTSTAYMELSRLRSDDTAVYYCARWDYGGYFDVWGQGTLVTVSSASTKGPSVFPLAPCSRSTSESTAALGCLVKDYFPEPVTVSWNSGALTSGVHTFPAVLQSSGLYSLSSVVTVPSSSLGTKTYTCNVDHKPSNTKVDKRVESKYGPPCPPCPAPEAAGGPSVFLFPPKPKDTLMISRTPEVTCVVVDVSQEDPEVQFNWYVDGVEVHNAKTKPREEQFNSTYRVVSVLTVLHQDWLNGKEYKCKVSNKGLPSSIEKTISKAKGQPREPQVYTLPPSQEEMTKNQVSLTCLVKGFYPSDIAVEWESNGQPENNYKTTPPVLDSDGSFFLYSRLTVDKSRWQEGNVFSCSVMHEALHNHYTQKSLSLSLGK
light: DIQMTQSPSSLSASVGDRVTITCRASQDITNYLNWYQQKPGKAVKLLIYYTSRLHSGVPSRFSGSGSGTDYTLTISSLQPEDFATYFCQQGDTLPWTFGQGTKLEIKRTVAAPSVFIFPPSDEQLKSGTASVVCLLNNFYPREAKVQWKVDNALQSGNSQESVTEQDSKDSTYSLSSTLTLSKADYEKHKVYACEVTHQGLSSPVTKSFNRGEC

B8: H0L0 (antibody, human IgG1, kappa, V domains shown)
VH: QVQLVQSGAEVKKPGASVKVSCKASGYTFTSYWMHWVRQAPGQGLEWMGRIDPNSGGIKYNEKFKSRVTMTRDTSISTAYMELSRLRSDDTAVYYCARWDYGGYFDVWGQGTLVTVSS
VL: DIQMTQSPSSLSASVGDRVTITCRASQDITNYLNWYQQKPGKAPKLLIYYTSRLHSGVPSRFSGSGSGTDFTLTISSLQPEDFATYYCQQGDTLPWTFGQGTKLEIKR
notes: also called 20E6_H0L0
binding result [11]: no binding (tested: single dose, 50 µL of 100 ng/µL)

B9: H2L0 (antibody, human IgG1, kappa, V domains shown)
VH: QVQLVQSGAEVKKPGASVKVSCKASGYTFTSYWMHWVRQAPGQGLEWIGRIDPNSGGIKYNEKFKSRVTLTVDKSSSTAYMELSRLRSDDTAVYYCARWDYGGYFDVWGQGTLVTVSS
VL: DIQMTQSPSSLSASVGDRVTITCRASQDITNYLNWYQQKPGKAPKLLIYYTSRLHSGVPSRFSGSGSGTDFTLTISSLQPEDFATYYCQQGDTLPWTFGQGTKLEIKR
notes: also called 20E6_H2L0
binding result [11]: no binding (tested: single dose, 50 µL of 100 ng/µL)

B10: H3L0 (antibody, human IgG1, kappa, V domains shown)
VH: QVQLVQSGAEVKKPGASVKVSCKASGYTFTSYWMHWVKQRPGQGLEWIGRIDPNSGGIKYNEKFKSKATLTVDKSSSTAYMELSRLRSDDTAVYYCARWDYGGYFDVWGQGTLVTVSS
VL: DIQMTQSPSSLSASVGDRVTITCRASQDITNYLNWYQQKPGKAPKLLIYYTSRLHSGVPSRFSGSGSGTDFTLTISSLQPEDFATYYCQQGDTLPWTFGQGTKLEIKR
notes: also called 20E6_H3L0
binding result [11]: no binding (tested: single dose, 50 µL of 100 ng/µL)

B11: H1L0 (antibody, human IgG1, kappa, V domains shown)
VH: QVQLVQSGAEVKKPGASVKVSCKASGYTFTSYWMHWVRQAPGQGLEWIGRIDPNSGGIKYNEKFKSRVTLTVDTSISTAYMELSRLRSDDTAVYYCARWDYGGYFDVWGQGTLVTVSS
VL: DIQMTQSPSSLSASVGDRVTITCRASQDITNYLNWYQQKPGKAPKLLIYYTSRLHSGVPSRFSGSGSGTDFTLTISSLQPEDFATYYCQQGDTLPWTFGQGTKLEIKR
notes: also called 20E6_H1L0
binding result [11]: no binding (tested: single dose, 50 µL of 100 ng/µL)
